Experiment [1] has as its target MD145 virus protease (MD145pro) (MD145 virus (norovirus GII/4)).
The target of experiment [2] is Norwalk virus protease (NVpro) (Norwalk virus (norovirus GI/1)) (UniProt Q83883).
Chain of UniProt Q83883 (Q83883 1101-1281): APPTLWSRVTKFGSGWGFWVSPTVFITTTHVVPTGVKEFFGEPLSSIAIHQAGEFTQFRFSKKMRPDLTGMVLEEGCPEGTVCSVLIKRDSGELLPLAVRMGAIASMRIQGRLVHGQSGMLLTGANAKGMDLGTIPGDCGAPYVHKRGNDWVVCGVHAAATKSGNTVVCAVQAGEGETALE

Turning to edans-EPDFHLQGPEDLAK-dabcyl [edans-…-dabcyl], the results for the Km of cleavage of the fluorogenic substrate (FRET protease assay) in experiment [1] and in experiment [2] were 545 µM and 790 µM, respectively.

For edans-DFHLQGP-dabcyl [edans-DFHLQGP-dabcyl], the Km of cleavage of the fluorogenic substrate (FRET protease assay) in experiment [1] amounted to 160 µM; in experiment [2], 272 µM.
